# Numbered stars: 1 amine (or outer) side, 2 acyl side, 3 side chain; on linkers, the order of the positions; unused ones are H or OH. Square brackets hold non-standard residues; d marks the D form. Ends that are not written are not given here. Peptide text beside a SMILES is read from it. * marks the point of attachment. BAT = N6,N9-bis(2-methyl-2-mercaptopropyl)-6,9-diazanonanoic acid (chelator), CC(C)(S)CNCCN(CCCCC(=O)*)CC(C)(C)S; C(Acm) = CC(=O)NCSC[C@H](N[*:1])C(=O)[*:2]; X1 = CC(C)(S)CNCCN(CCCCC(=O)*)CC(C)(C)S; pGlu = O=C1CC[C@@H](C(=O)O)N1; Picolinoyl = O=C(c1ccccn1)*; Acm = CC(=O)NC*; For = O=C*
# Columns and labels:
# in vivo = test: in vivo; design: species or system New Zealand white rabbits; settings: rabbit, iv
# Protocol: (§1) After 24 h, the animals were sedated by i.m. injection of ketamine and xylazine, and then injected i.v. with Tc-99m labeled peptide (≤150 μg, 2-10 mCi). The animals were positioned supine in the field of view of a gamma camera (LEAP colimator/photopeaked for Tc-99m) and imaged over the first hour post-injection, and then at approximately 1 h intervals over the next three hours post injection. Animals were allowed to recover between image acquisitions and re-anesthetized as needed.
# (§2) Upon completion of the final imaging, each animal was sacrificed by overdose of phenobarbital i.v. and dissected to obtain samples of blood and of infected and control muscle tissue. The tissue samples were weighed, and along with a standard amount of the injected dose, were counted using a gamma counter, and the percent injected dose (per gram of tissue) remaining in the tissues was determined. Ratios of percent of injected dose per gram of infected versus non-infected muscle tissue, and of infected muscle tissue versus blood, were calculated for each peptide. Scintiphotos of whole body and leg images of a rabbit injected with a Tc-99m labeled reagent of the invention, having the formula
# infected muscle tissue = test: in vivo; design: species or system New Zealand white rabbits; settings: rabbit; for Blood (% ID/g) / Control Muscle (% ID/g): iv
# Protocol: as §1, §2
# [1] = New Zealand white, total radioactivity, Blood (% ID/g)
# [2] = New Zealand white, total radioactivity, Control Muscle (% ID/g)
compound,measurement,setting,value
"CSCC[C@H](NC=O)C(=O)N[C@@H](CC(C)C)C(=O)N[C@@H](Cc1ccccc1)C(=O)N[C@@H](CCCCNC(=O)CCCCN(CCNCC(C)(C)S)CC(C)(C)S)C(N)=O (99mTc complex, metal not drawn) [formyl.MLFK.[BAT]amide, formyl.MLFK.[BAT].amide] (For-MLFK(X1)-NH2)",tissue uptake,in vivo; Blood (% ID/g),0.006 %ID/g
same,tissue uptake,in vivo; Control Muscle (% ID/g),0.0028 %ID/g
same,Ratio of Infected/Blood,infected muscle tissue,3.58
same,Ratio of Infected/Control,infected muscle tissue,7.68
"CCCC(CCC)(NC(=O)[C@H](CCSC)NC=O)C(=O)N[C@@H](Cc1ccccc1)C(=O)NCCCCCN(CCNCC(C)(C)S)CC(C)(C)S [formyl.M.Dpg.F.[BAM], formyl.M.DpgF.[BAM]]",tissue uptake,in vivo; [1],0.003 %ID/g
same,tissue uptake,in vivo; [2],0.0007 %ID/g
same,Ratio of Infected/Blood,infected muscle tissue,3.53
same,Ratio of Infected/Control,infected muscle tissue,15.14
CC(C)C[C@H](NC(=O)C1(NC=O)CCSCC1)C(=O)N[C@@H](Cc1ccccc1)C(=O)NCCCCCN(CCNCC(C)(C)S)CC(C)(C)S [formyl.Thp.LF.[BAM]],tissue uptake,in vivo; [1],0.006 %ID/g
same,tissue uptake,in vivo; [2],0.001 %ID/g
same,Ratio of Infected/Blood,infected muscle tissue,0.83
same,Ratio of Infected/Control,infected muscle tissue,4.80
"(acetyl.CCAcm GCAcm PLYKKIIKKLLES)2.BSME ({Ac-Cys-C(Acm)-Gly-C(Acm)}-PLYKKIIKKLLES; also: dimer via BSME, Tc-99m label) [(Ac.CCAcm GCAcm PLYKKIIKKLLES)2 BSME]",Ratio of Infected/Blood,infected muscle tissue,0.84
same,Ratio of Infected/Control,infected muscle tissue,7.45
same,Blood (% ID/g),infected muscle tissue,0.010 % ID/g
same,Control Muscle (% ID/g),infected muscle tissue,0.0011 % ID/g
CAcm GCAcm (VGVAPG)3 amide (C(Acm)GC(Acm)VGVAPGVGVAPGVGVAPG-NH2; also: Tc-99m label),Ratio of Infected/Blood,infected muscle tissue,1.69
same,Ratio of Infected/Control,infected muscle tissue,3.94
same,Blood (% ID/g),infected muscle tissue,0.011 % ID/g
same,Control Muscle (% ID/g),infected muscle tissue,0.0017 % ID/g
CAcm GCAcm TKPR (C(Acm)GC(Acm)TKPR; also: Tc-99m label),Ratio of Infected/Blood,infected muscle tissue,2.07
same,Ratio of Infected/Control,infected muscle tissue,2.40
same,Blood (% ID/g),infected muscle tissue,0.003 % ID/g
same,Control Muscle (% ID/g),infected muscle tissue,0.0025 % ID/g
Pic.GC(VGVAPG)3 amide (Picolinoyl-GCVGVAPGVGVAPGVGVAPG-NH2; numbers in words are those of the source; also: Tc-99m label) [PicGC(VGVAPG)3 amide],Ratio of Infected/Blood,infected muscle tissue,0.69
same,Ratio of Infected/Control,infected muscle tissue,5.58
same,Blood (% ID/g),infected muscle tissue,0.015 % ID/g
same,Control Muscle (% ID/g),infected muscle tissue,0.0019 % ID/g
[BAT].(VPGVG)4 amide ({BAT}-VPGVGVPGVGVPGVGVPGVG-NH2; also: Tc-99m label),Ratio of Infected/Blood,infected muscle tissue,1.68
same,Ratio of Infected/Control,infected muscle tissue,5.33
same,Blood (% ID/g),infected muscle tissue,0.002 % ID/g
same,Control Muscle (% ID/g),infected muscle tissue,0.0006 % ID/g
[BAT].GGPLYKKIIKKLLES ({BAT}-GGPLYKKIIKKLLES; also: Tc-99m label),Ratio of Infected/Blood,infected muscle tissue,0.50
same,Ratio of Infected/Control,infected muscle tissue,7.00
same,Blood (% ID/g),infected muscle tissue,0.004 % ID/g
same,Control Muscle (% ID/g),infected muscle tissue,0.0003 % ID/g
acetyl.CAcm GCAcm GGG(VPGVG)4 amide (Ac-C(Acm)GC(Acm)GGGVPGVGVPGVGVPGVGVPGVG-NH2; also: Tc-99m label) [Ac.CAcm GCAcm GGG(VPGVG)4 amide],Ratio of Infected/Blood,infected muscle tissue,0.63
same,Ratio of Infected/Control,infected muscle tissue,3.97
same,Blood (% ID/g),infected muscle tissue,0.049 % ID/g
same,Control Muscle (% ID/g),infected muscle tissue,0.0077 % ID/g
acetyl.CGGGPLYKKIIKKLLES (Ac-CGGGPLYKKIIKKLLES) [Ac.CGGGPLYKKIIKKLLES],Ratio of Infected/Blood,infected muscle tissue,0.74
same,Ratio of Infected/Control,infected muscle tissue,4.70
same,Blood (% ID/g),infected muscle tissue,0.032 % ID/g
same,Control Muscle (% ID/g),infected muscle tissue,0.0050 % ID/g
acetyl.KKKKKCAcm GCAcm GGPLYKKIIKKLLES (Ac-KKKKKC(Acm)GC(Acm)GGPLYKKIIKKLLES; also: Tc-99m label) [Ac.KKKKKCAcm GCAcm GGPLYKKIIKKLLES],Ratio of Infected/Blood,infected muscle tissue,0.93
same,Ratio of Infected/Control,infected muscle tissue,5.60
same,Blood (% ID/g),infected muscle tissue,0.006 % ID/g
same,Control Muscle (% ID/g),infected muscle tissue,0.0019 % ID/g
pGlu.GVNDNEEGFFSARCAcm GCAcm amide ([pGlu]GVNDNEEGFFSARC(Acm)GC(Acm)-NH2; also: Tc-99m label),Ratio of Infected/Blood,infected muscle tissue,0.68
same,Ratio of Infected/Control,infected muscle tissue,5.68
same,Blood (% ID/g),infected muscle tissue,0.024 % ID/g
same,Control Muscle (% ID/g),infected muscle tissue,0.0029 % ID/g
